Measurements from patent publication US7943319B2, “Utility of RET mutant in diagnosis and treatment of melanoma” (John Wayne Cancer Institute, priority 2007, dated 2011).
Entries after “also recorded” stand apart in the source; their conditions may differ.

Key:
RETmt thyroid cancers = settings: cited from earlier work
RET = RET (Homo sapiens, UniProt P07949); settings: cited from earlier work
ME7 cells (RETmt/BRAFwt) = assay: Blocking assay of GDNF-induced proliferation; assay type: cell-based, human; settings: pre-treated 60 min with 10 μM PD98059 or 100 nM wortmannin, then 25 ng/ml GDNF for 72 hrs
Experimental: (§1) Cell proliferation 48 and 72 hrs after GDNF treatment (5, 25 or 50 ng/ml, dissolved in water) in serum-free medium was analyzed by 3-(4,5-dimethylthiazol-2-yl)-2,5-diphenyltetrazolium bromide (MTT) and direct cell counting with a light microscope, respectively. MTT (0.4 mg/ml, Sigma-Aldrich, St. Louis, Mo.) was added into culture wells after washing with PBS. The converted dye was dissolved with DMSO 2 hrs after incubation at 37° C. and the absorbance was measured at a wavelength of 550 nm with a microplate reader (Bio-Rad). For cell counting, cells were harvested after washing with PBS and the number of cells was counted using a hemocytometer under a microscope. In blocking assays, cells were pre-treated with 10 μM of a MEK1 inhibitor, PD98059 (Cell Signaling Technology), or 100 nM of a PI3K inhibitor, wortmannin (Cell Signaling Technology), for 60 min before treatment of GDNF as indicated in the instructions from the company, and followed by 25 ng/ml of GDNF treatment for 72 hrs. To avoid the effect of the delivery agent on cells, PD98059 and wortmannin were dissolved in PBS, and the same amount of PBS was added to control (GDNF(−)) and GDNF-treated cells.

[1] = biological target: RET G691S mutant (RETmt), endogenous on melanoma cells (human) (UniProt P07949); assay: cell-based or functional assay
ERK1/2 = assay: Western blotting of phosphorylated ERK1/2 after GDNF; assay type: cell-based, human; settings: 25 ng/ml GDNF
Experimental: (§2) Cells were washed twice with ice-cold phosphate-buffered saline (PBS) and dissolved in solubilizing buffer (pH 7.5, 20 mM Tris-HCL, 12.5 mM β-glycerophosphate, 2 mM EGTA, 10 mM NaF, 1 mM benzamide, 1% NP-40, 1 mM Na3VO4, 1× protease inhibitor mix) after treatment with 25 μg human recombinant GDNF (Chemicon International, Temecula, Calif.). Each aliquot of protein (10 μg) was subjected to Western blotting analysis. After electrophoresis on 12.5% polyacrylamide gels, the protein was transblotted to Hybond™-P (Amersham Life Sciences, Inc., Arlington Heights, Ill.) in transfer buffer (192 mM glycine, 25 mM Tris, 2.5 mM SDS, and 10% methanol). The blots were blocked with 5% non-fat dry milk, and then incubated with anti-ERK 1/2 rabbit polyclonal Ab, or anti-phosphorylated ERK 1/2 rabbit polyclonal Ab (1:1000, Phosphoplus® p44/42 MAP Kinase (Thr202/Tyr204) Antibody kit, Cell Signaling Technology, Danvers, Mass.), and then incubated with an horse radish peroxidase (HRP)-conjugated anti-rabbit IgG Ab (1:2000, Cell Signaling Technology). As for Western blotting of Akt, anti-Akt rabbit polyclonal Ab, or anti-phosphorylated Akt rabbit polyclonal Ab (1:500, Phosphoplus® Akt (Ser473) Antibody Kit, Cell Signaling Technology) and a secondary Ab, HRP-conjugated anti-rabbit IgG Ab (1:1000), were used. Subsequently, the blots were developed with ECL Plus Western blotting Detection system (GE Healthcare Life Sciences, Piscataway, N.J.) according to the manufacturer instructions.

[2] = test system: melanoma cells (ME1, ME7, ME3); assay: Actin polymers staining by Alexa Fluor 568 phalloidin; assay type: cell-based, human; settings: 10 ng/ml GDNF, 48 hrs
Experimental: Melanoma cells were seeded in BD BioCoat™ CultureSlides (BD Biosciences, San Jose, Calif.). Cells were washed twice with PBS and fixed with 3.7% formaldehyde solution in PBS for 10 min at room temperature after a 48 hr incubation with GDNF (10 ng/ml) at 37° C. Fixed cells were stained with 1 U/200 μl of PBS Alexa Fluor® 568 phalloidin (Invitrogen) for 20 min at room temperature. After washing twice with PBS, actin polymers were observed using fluorescence microscopy with 400× magnification.

[3] = test system: melanoma cells (RETmt and RETwt); assay: Migration assay (Transwell chamber) with GDNF; assay type: cell-based, human; settings: RETmt cells compared with RETwt cells; 5 or 25 ng/ml GDNF, 48 hrs
Experimental: Migration ability of the melanoma cells was determined with a modified technique using a Transwell® chamber with a microporous membrane (membrane diameter 6.5 mm, pore size 8 μm, CORNING, Corning, N.Y.) (29). Melanoma cells were seeded in the upper chamber with RPMI 1640 culture medium (Invitrogen) with 2% fetal bovine serum (FBS). The lower chamber contained RPMI 1640 culture medium with 2% FBS and 5 or 25 ng/ml of GDNF. The cells that migrated through the membrane and adhered to the bottom of lower chamber were fixed with 80% ethanol and stained with hematoxylin 48 hrs after incubation at 37° C. The number of stained cells was counted in a total of 5 fields under a microscope with 200× magnification. In blocking assays, cells were pre-treated with wortmannin (100 nM) for 60 min before treatment of GDNF as indicated in the instructions from the company and followed by treatment with 25 ng/ml GDNF for 48 hrs. To avoid the effect of the delivery agent on cells, wortmannin was dissolved in PBS, and the same amount of PBS was added to control (GDNF(−)) and GDNF-treated cells.

[4] = test system: melanoma cells (RETmt and RETwt); assay: QCM Collagen-based Invasion Assay with GDNF; assay type: cell-based, human; settings: RETmt cells compared with RETwt cells; 25 ng/ml GDNF, 60 hrs
Experimental: Invasion ability of the melanoma cells was analyzed using QCM™ Collagen-based Invasion Assay MILLIPORE, Billerica, Mass.), as described in previous reports (27, 29). Cells were seeded in the upper chamber with RPMI 1640 culture medium (Invitrogen) with 2% FBS containing GDNF. The lower chamber contained RPMI 1640 culture medium with 5% FBS and GDNF with same concentration as the upper chamber (25 ng/ml). Cells invading the collagen-coated membrane were fixed and stained 60 hrs after incubation at 37° C. using reagents provided by MILLIPORE, according to the manufacturer's instructions. Stained cells were dissolved with a provided reagent and measured at a 550 nm wavelength with a microplate reader (Bio-Rad). In the blocking assay, cells were pre-treated with 1 μg/ml of a goat anti-human polyclonal RET-specific Ab, which binds to the extracellular domain of RET (R&D Systems), or 1 μg/ml control goat IgG (Santa Cruz Biotechnology) as a control 60 min before treatment with GDNF and followed by treatment with 25 ng/ml GDNF for 60 hrs.

[5] = test system: melanoma cells (RETmt and RETwt); assay: Cell proliferation by GDNF (MTT assay); assay type: cell-based, human; settings: 48-hr exposure to GDNF, serum-free medium
Experimental: as §1

Akt = assay: Western blotting of phosphorylated Akt after GDNF; assay type: cell-based, human; settings: 25 ng/ml GDNF
Experimental: as §2

Sequence of RET (P07949 29-1114): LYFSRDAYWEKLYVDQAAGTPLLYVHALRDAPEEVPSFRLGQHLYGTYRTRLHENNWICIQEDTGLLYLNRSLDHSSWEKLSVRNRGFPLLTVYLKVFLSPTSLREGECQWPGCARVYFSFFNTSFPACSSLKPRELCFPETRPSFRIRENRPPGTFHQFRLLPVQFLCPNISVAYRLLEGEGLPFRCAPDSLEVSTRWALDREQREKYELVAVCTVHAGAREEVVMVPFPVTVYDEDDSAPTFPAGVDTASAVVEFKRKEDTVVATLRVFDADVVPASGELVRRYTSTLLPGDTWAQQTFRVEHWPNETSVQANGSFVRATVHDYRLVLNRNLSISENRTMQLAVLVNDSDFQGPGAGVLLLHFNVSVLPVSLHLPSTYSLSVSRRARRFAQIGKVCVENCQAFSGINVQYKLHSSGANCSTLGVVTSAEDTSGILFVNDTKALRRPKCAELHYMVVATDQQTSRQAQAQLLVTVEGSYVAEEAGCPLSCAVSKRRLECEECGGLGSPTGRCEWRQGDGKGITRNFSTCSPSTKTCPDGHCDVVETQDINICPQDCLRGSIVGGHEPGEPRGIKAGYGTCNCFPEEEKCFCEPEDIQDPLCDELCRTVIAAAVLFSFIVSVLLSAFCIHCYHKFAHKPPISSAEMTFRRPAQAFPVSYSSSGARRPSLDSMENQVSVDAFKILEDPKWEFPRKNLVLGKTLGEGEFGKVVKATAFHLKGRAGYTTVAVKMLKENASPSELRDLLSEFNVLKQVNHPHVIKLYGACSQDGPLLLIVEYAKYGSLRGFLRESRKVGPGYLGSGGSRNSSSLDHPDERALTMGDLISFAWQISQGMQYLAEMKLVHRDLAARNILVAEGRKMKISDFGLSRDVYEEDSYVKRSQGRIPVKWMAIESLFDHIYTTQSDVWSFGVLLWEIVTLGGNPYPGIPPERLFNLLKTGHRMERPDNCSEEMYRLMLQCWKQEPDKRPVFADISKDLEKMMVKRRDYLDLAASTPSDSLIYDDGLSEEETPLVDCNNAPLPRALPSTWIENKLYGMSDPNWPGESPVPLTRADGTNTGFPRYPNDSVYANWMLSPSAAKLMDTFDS
Sequence of RET G691S mutant (RETmt), endogenous on melanoma cells (human) (P07949 29-1114 G691S): as the sequence (P07949 29-1114) above, with G663S counted along it

CNC(=O)c1cc(Oc2ccc(NC(=O)Nc3ccc(Cl)c(C(F)(F)F)c3)cc2)ccn1 [Sorafenib]
growth of RETmt thyroid cancers (RETmt thyroid cancers): suppress growth
RET signaling (RET): can block
kinase activity of RET (RET): directly suppresses
lysosomal degradation of RET protein (RET): promotes

COc1cccc(-c2cc(=O)c3ccccc3o2)c1N [PD98059]
suppression of GDNF-induced proliferation (ME7 cells (RETmt/BRAFwt)): significantly blocked; also recorded: completely suppressed

human recombinant GDNF (glial cell line-derived neurotrophic factor) (from UniProt P39905 78-211) (ligand)
suppression by RET siRNA of GDNF-induced cell proliferation in ME1 (MTT assay) [1]: > 80%

B1: GDNF: human recombinant GDNF (Chemicon International), major ligand of RET (protein)
chain: SPDKQMAVLPRRERNRQAAAANPENSRGKGRRGQRGKNRGCVLTAIHLNVTDLGLGYETKEELIFRYCSGSCDAAETTYDKILKNLSRNRRLVSDKVGQACCRPIAFDDDLSFLDDNLVYHILRKHSAKRCGCI
phosphorylation of ERK1/2 (ERK1/2; ME1 (RETmt/BRAFmt), ME7 (RETmt/BRAFwt)): more intense phosphorylation; also recorded: strongly phosphorylated
duration of phosphorylation of ERK1/2 (ERK1/2; ME1, ME7): 60 min
time to strong phosphorylation of ERK1/2 after treatment (ERK1/2; ME1, ME7): ≤ 15 min
phosphorylation of ERK1/2 (ERK1/2; ME3 (RETwt/BRAFwt)): weak phosphorylation
actin polymerization (filopodia) ([2]; RETmt cell lines ME1, ME7): induced intensely; also recorded: induced filopodia
actin polymerization (filopodia) ([2]; RETwt cell line ME3): no actin polymerization induced
migration after GDNF stimulation [3]: more vigorous
invasion after GDNF stimulation [4]: more vigorous
cell proliferation on GDNF exposure ([5]; RETmt melanoma cells): enhanced proliferation
cell proliferation on GDNF exposure ([5]; RETwt melanoma cells): but not RETwt melanoma cells
phosphorylation of Akt (Akt; ME1 (RETmt/BRAFmt), ME5 (RETmt/BRAFwt)): strongly phosphorylated
duration of phosphorylation of Akt (Akt; ME1, ME5): 60 min
time to strong phosphorylation of Akt after treatment (Akt; ME1, ME5): ≤ 15 min
phosphorylation of Akt (Akt; ME3 (RETwt/BRAFwt)): weak phosphorylation
